# Measured values as given in US20250304693A1 (HIFIBIO, published 2025).
# Positions count from the first letter of the chain named.
# T1: recombinant human BTLA (human, UniProt Q7Z6A9 31-157, limits assumed)
# T1 construct: ELISA antigen; construct not described
# T1 sequence (looked up): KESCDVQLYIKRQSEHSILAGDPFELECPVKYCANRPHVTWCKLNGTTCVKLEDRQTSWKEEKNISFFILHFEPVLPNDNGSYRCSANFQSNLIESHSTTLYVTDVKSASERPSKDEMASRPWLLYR
# T2: cynomolgus BTLA on cells (cynomolgus, UniProt A0A2K5W7M7 31-289)
# T2 construct: whole, on cells; Overexpressed on Expi293 cells; also called cyno BTLA; CynoBTLA
# T2 sequence: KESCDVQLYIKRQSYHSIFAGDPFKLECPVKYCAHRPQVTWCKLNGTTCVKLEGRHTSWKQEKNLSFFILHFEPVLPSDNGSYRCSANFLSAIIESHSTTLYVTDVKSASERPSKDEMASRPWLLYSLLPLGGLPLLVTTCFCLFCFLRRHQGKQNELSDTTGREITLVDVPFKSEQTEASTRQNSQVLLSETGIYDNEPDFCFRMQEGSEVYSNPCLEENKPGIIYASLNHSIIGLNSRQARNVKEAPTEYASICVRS
# B1: HFB6-2hz9-hG4P (antibody, V domains shown)
# VH: QVQLVQSGAEVKKPGASVKVSCKASGVNIKDTYMYWVRQAPGQGLEWIGRIDPANGYTRYAQKFQGRATVTADTSTSTVYLELSSLRSEDTAVYYCAVNDGYFEYFDVWGQGTTVTVSS
# VL: EIVLTQSPGTLSLSPGERATLSCRSSQSLLDSDGKPYLNWLQQKPGQAPRRLIYLVSKLDSGIPDRFSGSGSGTDFTLTISRLEPEDLAVYYCWQDTHFPRTFGQGTKLEIK
# notes: Humanized variant of HFB6-2
# B2: HFB6-2hz12-hG4P (antibody, V domains shown)
# VH: EVQLLESGGGLVQPGGSLRLSCAASGVNIKDTYMYWVRQAPGKGLEWIGRIDPANGYTRYADSVKGRFTISADNSKNTLYLQMNSLRAEDTAVYYCAVNDGYFEYFDVWGQGTTVTVSS
# VL: B1 VL
# notes: Humanized variant of HFB6-2
# B3: HFB6-2hz16-hG4P (antibody, V domains shown)
# VH: B1 VH
# VL: DIVMTQSPDSLAVSLGERATINCKSSQSLLDSDGKPYLNWLQQKPGQSPKRLIYLVSKLDSGVPDRFSGSGSGTDFTLTISSVQAEDVAVYYCWQDTHFPRTFGQGTKLEIK
# notes: Humanized variant of HFB6-2
# B4: HFB6-2hz17-hG4P (antibody, V domains shown)
# VH: B1 VH with A16S, T58A, V70I, T74E, V79A
# VL: B3 VL
# notes: Humanized variant of HFB6-2
# B5: HFB6-2hz18-hG4P (antibody, V domains shown)
# VH: B1 VH with A16S, T58A, T74K, V79A
# VL: B3 VL
# notes: Humanized variant of HFB6-2
# B6: HFB6-2hz8-hG4P (antibody, V domains shown)
# VH: B1 VH with A68V, V70M, L81M
# VL: B1 VL
# notes: Humanized variant of HFB6-2
# B7: HFB6-2hz11-hG4P (antibody, V domains shown)
# VH: B1 VH with A16S, T58A, T74K, V79A
# VL: B1 VL
# notes: Humanized variant of HFB6-2
# B8: HFB6-2hz0-hG4P (antibody, V domains shown)
# VH: B1 VH with A16S, T58A, V70I, T74E, V79A
# VL: B1 VL
# B9: HFB6-2hz15-hG4P (antibody, V domains shown)
# VH: B1 VH with A68V, V70M, L81M
# VL: B3 VL
# notes: Humanized variant of HFB6-2
# B10: HFB6-2 (antibody, V domains shown)
# VH: EVQLQQSGAELVKPGASVKLSCTASGVNIKDTYMYWVKQRPEQGLEWIGRIDPANGYTRYDPKFQDKATVTADTSSNTAHLQLSSLTSEDTAVYYCAVNDGYFEYFDVWGAGTTVTVSS
# VL: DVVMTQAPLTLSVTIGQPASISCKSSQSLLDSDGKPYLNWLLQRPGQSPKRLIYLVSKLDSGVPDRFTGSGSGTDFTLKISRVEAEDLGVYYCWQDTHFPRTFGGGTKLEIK
# notes: Mouse lead antibody; also called HFB6-2-hG4P; parental HFB6-2
# B11: HFB6-2hz19-hG4P (antibody, V domains shown)
# VH: B2 VH
# VL: B3 VL
# notes: Humanized variant of HFB6-2
# B12: HFB6-2hz20-hG4P (antibody, V domains shown)
# VH: QVQLQESGPGLVKPSGTLSLTCAASGVNIKDTYMYWVRQPPGKGLEWIGRIDPANGYTRYNPSFKSRATVSADKSKNQASLKLSSLTAADTAVYYCAVNDGYFEYFDVWGQGTTVTVSS
# VL: B3 VL
# notes: Humanized variant of HFB6-2
# B13: HFB6-3hz24-hG4P-C109A (antibody, V domains shown)
# VH: QVQLQESGPGLVKPSGTLSLTCADSGFNIKDTYIHWVRQPPGKGLEWIGRIDPANGFTRYNPSLKSRVTISSDKSKNQASLKLSSVTAADTAVYYCAREDGYPYYTLDAWGQGTTVTVSS
# VL: B3 VL with V13L, S32V, P36T, L41F, S48P, D96G
# notes: Humanized variant of HFB6-3
# B14: HFB6-3hz25-hG4P-C109S (antibody, V domains shown)
# VH: B13 VH with N28S, K30S, A109S
# VL: B3 VL with V13L, S32V, P36T, L41F, S48P, D96G
# notes: Humanized variant of HFB6-3
# B15: HFB6-3hz25-hG4P-C109A (antibody, V domains shown)
# VH: B13 VH with N28S, K30S
# VL: B3 VL with V13L, S32V, P36T, L41F, S48P, D96G
# notes: Humanized variant of HFB6-3
# B16: HFB6-3hz24-hG4P-C109S (antibody, V domains shown)
# VH: B13 VH with A109S
# VL: B3 VL with V13L, S32V, P36T, L41F, S48P, D96G
# notes: Humanized variant of HFB6-3
# B17: HFB6-3hz20-hG4P (antibody, V domains shown)
# VH: B13 VH with L64F, V68A, A109C
# VL: B3 VL with V13L, S32V, P36T, L41F, S48P, D96G
# notes: Humanized variant of HFB6-3
# Biological target: T3, human BTLA (B- and T-lymphocyte attenuator) on cells (human, UniProt Q7Z6A9 31-289)
# Experiment: cell-based or functional assay
row,Reporter EC50,Binder
1,36.7 nM,B1
2,43.2 nM,B2
3,10.8 nM,B3
4,18.2 nM,B4
5,10.8 nM,B5
6,66.8 nM,B6
7,19.4 nM,B7
8,47 nM,B8
9,19.6 nM,B9
10,11.5 nM,B10
11,22.1 nM,B11
12,9.77 nM,B12

# Biological target: T3, human BTLA (B- and T-lymphocyte …)
# Experiment: cell-based or functional assay
# Remark: another data set of the same source
row,CHO.TCRa.hHVEM/Jurkat.hBTLA.NFAT-luc (EC50 (nM)),Binder
1,13 nM,B13
2,14.4 nM,B14
3,10.2 nM,B15
4,16.6 nM,B16

# Biological target: T3, human BTLA (B- and T-lymphocyte …)
# Experiment: FACS on HEK293 cells overexpressing human BTLA, AF647 anti-human IgG Fc detection
# Method: (§1) In FIGS. 2A-2B, HEK293 cells overexpressing human BTLA and Expi293 cells overexpressing cynomolgus BTLA were incubated with different concentrations of anti-BTLA parental antibodies. Anti-BTLA antibody binding to target cells was quantified with an AF647-conjugated anti-human IgG Fc 2nd antibody by FACS.
row,EC50,Binder
1,2.34 nM,B10

# Biological target: T3, human BTLA (B- and T-lymphocyte …)
# Experiment: FACS, primary human B cells, donor 149, AF647 anti-human IgG Fc secondary antibody
# Method: (§2) In FIGS. 4A-4D, primary T cells and B cells were isolated from human PBMC with EasySep™ Human T Cell Isolation Kit and B cell isolation kit ([…] Technologies: Vancouver, Canada). Isolated T cells or B cells were incubated with different concentrations of anti-BTLA parental antibodies. Anti-BTLA antibody binding to target cells was quantified with an AF647-conjugated anti-human IgG Fc 2nd antibody by FACS.
row,EC50,Binder
1,0.8 nM,B10

# Biological target: T1, recombinant human BTLA
# Experiment: ELISA on recombinant human BTLA
row,EC50,Binder
1,3.29 nM,B1
2,5.05 nM,B2
3,2.39 nM,B3
4,2.4 nM,B4
5,2.24 nM,B5
6,3.96 nM,B6
7,3.66 nM,B7
8,3.21 nM,B8
9,2.74 nM,B9
10,2.35 nM,B10
11,2.55 nM,B11
12,2.51 nM,B12

# Biological target: T3, human BTLA (B- and T-lymphocyte …)
# Experiment: FACS on HEK293T.hBTLA cells, AF647 anti-human IgG Fc detection
# Method: (§3) In FIGS. 11A and 11B, HEK293 overexpressing human BTLA (FIG. 11A) and Expi293 cells overexpressing cynomolgus BTLA (FIG. 11B) were incubated with different concentrations of selected HFB6-3 humanized variants with cysteine mutations. Anti-BTLA antibodies binding to target cells were quantified with an AF647-conjugated anti-human IgG Fc 2nd antibody by FACS. HFB6-3hz24-hG4P-C109A, HFB6-3hz25-hG4P-C109A, HFB6-3hz24-hG4P-C109S and HFB6-3hz25-hG4P-C109S bound to human BTLA and cyno BTLA with single digit nM and sub-nM EC₅₀, similar as parental HFB6-3 (FIGS. 11A and 11B and Table 13).
row,EC50,Binder
1,3.27 nM,B13
2,4.04 nM,B14
3,3.2 nM,B15
4,3.84 nM,B17
5,3.6 nM,B16

# Biological target: T3, human BTLA (B- and T-lymphocyte …)
# Experiment: FACS, primary human B cells, donor 1709, AF647 anti-human IgG Fc secondary antibody
# Method: as §2
row,EC50,Binder
1,0.28 nM,B10

# Biological target: T3, human BTLA (B- and T-lymphocyte …)
# Experiment: FACS, primary human T cells, donor 1709, AF647 anti-human IgG Fc secondary antibody
# Method: as §2
row,EC50,Binder
1,2 nM,B10

# Biological target: T3, human BTLA (B- and T-lymphocyte …)
# Experiment: FACS, primary human T cells, donor 149, AF647 anti-human IgG Fc secondary antibody
# Method: as §2
row,EC50,Binder
1,1.4 nM,B10

# Biological target: T3, human BTLA (B- and T-lymphocyte …)
# Experiment: FACS competition on HEK293.BTLA cells; competitor DL650-conjugated soluble HVEM
# Method: (§4) In FIG. 3A, recombinant HVEM soluble protein was conjugated with DyLight 650 (DL650) fluorophore. HEK293 cells overexpressing hBTLA (HEK293.BTLA) were preincubated with increasing concentrations of HFB6-2 and HFB6-3 at 4° C. for 30 minutes and then with DL650-conjugated HVEM for an additional 30 minutes. After washing, soluble HVEM remaining associated with BTLA on HEK293.BTLA cells was measured by FACS. HFB6-2 and HFB6-3 blocked soluble HVEM and cellular BTLA interaction with single digit nM IC₅₀.
row,IC50,Binder
1,5.45 nM,B10

# Biological target: T3, human BTLA (B- and T-lymphocyte …)
# Experiment: cell-based or functional assay
# Remark: another data set of the same source
row,"BTLA-HVEM blockade reporter assay, EC50",Binder
1,10.2 nM,B10

# Biological target: T2, cynomolgus BTLA on cells
# Experiment: FACS on Expi293 cells overexpressing cynomolgus BTLA, AF647 anti-human IgG Fc detection
# Method: as §1
row,EC50,Binder
1,0.614 nM,B10

# Biological target: T3, human BTLA (B- and T-lymphocyte …)
# Experiment: FACS competition on HEK293T.hBTLA cells; competitor hrHVEM-His-DL650
# Method: as §4, with “12A,” for “3A,”, “selected HFB6-3 humanized variants with cysteine mutants or parental” for “HFB6-2 and”, “for” for “for an”, “FACS.” for “FACS. HFB6-2 and HFB6-3 blocked soluble HVEM and cellular BTLA interaction with single digit nM IC₅₀.”
row,IC50,Binder
1,2.64 nM,B13
2,3.2 nM,B14
3,2.61 nM,B15
4,2.91 nM,B17
5,3.22 nM,B16

# Biological target: T2, cynomolgus BTLA on cells
# Experiment: FACS on Expi293.cynoBTLA cells, AF647 anti-human IgG Fc detection
# Method: as §3
row,EC50,Binder
1,6.89 nM,B13
2,8.83 nM,B14
3,9.69 nM,B15
4,7.38 nM,B17
5,7.83 nM,B16
